Laboratory results reported in PMC6905856, “Movement of accessible plasma membrane cholesterol by the GRAMD1 lipid transfer protein complex” (eLife, 2019).

Molecular target: the molecule itself
Assay: SEC; purified EGFP fusion of the luminal helix region alone on Superdex 200 increase 10/300 GL; 20 mM HEPES, 300 mM NaCl, 10% glycerol, 0.5 mM TCEP, pH 7.5; self-association judged from the elution volume

B1: EGFP-tagged luminal helix region of wild-type GRAMD1b (EGFP–helix: EGFP–GRAMD1b 674–718) (domain or fragment, human, UniProt Q3KR37-1 674-718, looked up)
chain: SQTEWAQLLESQQKYHDTELQKWREIIKSSVMLLDQMKDSLINLQ
notes: GRAMD1b, human, luminal helix region, residues 674-718; Predicted molecular weight ~35 kDa; also called EGFP-linker-GRAMD1b luminal helix; EGFP–(GGGS)3–GRAMD1b luminal helix (674–718); source: E. coli BL21-DE3 Rosetta, purified (Co-TALON or Ni-NTA, gel filtration on Superdex 200 increase); not shown: EGFP with (GGGS)3 linker, N-terminal, kept
  binding result: binds
